Measured values published in PMC4385930.

Tests used:
Assay in all cases: ITC
[1] = biological target: Bak BH3 BH3 (Homo sapiens), Q16611
[2] = biological target: Bax BH3 BH3 (Homo sapiens), Q07812
[3] = biological target: Bid BH3 BH3 (Homo sapiens), P55957

B1: F1L ΔN38ΔC36, P24356 (protein)
chain: YPLPENMVYRFDKSTNILDYLSTERDHVMMAVRYYMSKQRLDDLYRQLPTKTRSYIDIINIYCDKVSNDYNRDMNIMYDMASTKSFTVYDINNEVNTILMDNKGLGVRLATISFITELGRRCMNPVETIKMFTLLSHTICDDYFVDYITDIS
Binder B1 has a Kd [1] of 2.64 µM, a Kd [2] of 0.92 µM and a Kd [3] of 3.22 µM.
